Results from US20090068207A1, “Compositions Containing Beta 2-Glycoprotein I-Derived Peptides for the Prevention and/or Treatment of Vascular Disease” (Vascular Biogenics Ltd., priority 2005, published 2009).
Where “and” joins values, the source holds several entries; their conditions need not be identical. Equal values may be shown once.

Tested on: ApoE-KO mice
Experiment: Aortic sinus lesion area after oral administration in ApoE-KO mice
Format: in vivo
Excerpt: Assessment of Atherosclerosis: Quantification of atherosclerotic fatty streak lesions was done by calculating the lesion size in the aortic sinus as previously described (16) and by calculating the lesion size in the aorta. Briefly, after perfusion with saline Tris EDTA, the heart and the aorta were removed from the animals and the peripheral fat cleaned carefully. The upper section of the heart was embedded in OCT medium (10.24% w/w polyvinyl alcohol; 4.26% w/w polyethylene glycol; 85.50% w/w nonreactive ingredients) and frozen. Every other section (10 μm thick) throughout the aortic sinus (400 μm) was taken for analysis. The distal portion of the aortic sinus was recognized by the three valve cusps that are the junctions of the aorta to the heart. […] Lesion areas per section were scored on a grid (17) by an observer counting unidentified, numbered specimens. The aorta was dissected from the heart and surrounding adventitious tissue was removed. Fixation of the aorta and Sudan staining of the vessels were performed as previously described (21).
In order to determine the protective effect of mucosal administration of β2GPI on development of atherosclerosis, adult ApoE-KO mice were treated with oral administration of human β2GPI. 20 week-old male ApoE-KO mice, having advanced atherosclerotic lesions were treated monthly with human β2GPI (50 μg/dose) or PBS (0.2 ml) in 5 oral administrations (by gavage, as described hereinabove) given every other day, for four months. Lesion area calculated from cryosections of the aortic sinus were compared between control untreated 20 week old mice, and mice following 16 weeks oral administration of β2GPI or PBS.
10-11 week-old male ApoE-KO mice, having early atherosclerotic lesions, were treated with 5 oral administrations (by gavage, as described hereinabove) given every other day of human β2GPI peptide S-4 (SEQ ID NO: 14) or human β2GPI (50 μg/dose) or PBS (0.2 ml). Lesion areas calculated from cryosections of the aortic sinus were compared between control untreated, human β2GPI treated and S-4 human β2GPI-derived peptide treated mice at 8 weeks following the last oral administration of the antigens, or of PBS.

B1: Human β2 GPI: human beta2-glycoprotein I (SEQ ID NO: 10) purified from serum (protein)
chain: MISPVLILFSSFLCHVAIAGRTCPKPDDLPFSTVVPLKTFYEPGEEITYSCKPGYVSRGGMRKFICPLTGLWPINTLKCTPRVCPFAGILENGAVRYTTFEYPNTISFSCNTGFYLNGADSAKCTEEGKWSPELPVCAPIICPPPSIPTFATLRVYKPSAGNNSLYRDTAVFECLPQHAMFGNDTITCTTHGNWTKLPECREVKCPFPSRPDNGFVNYPAKPTLYYKDKATFGCHDGYSLDGPEEIECTKLGNWSAMPSCKASCKLPVKKATVVYQGERVKIQEKFKNGMLHGDKVSFFCKNKEKKCSYTEDAQCIDGTIEVPKCFKEHSSLAFWKTDASDVKPC
Aortic sinus lesion (μm^2) (End, oral 50 μg, 5 doses, ApoE-KO mice): 90833 ± 9502 μm^2 | reduction of progression of atherosclerotic lesions compared to PBS controls (oral 50 μg, 5 doses, then 8 weeks of chow diet, 10-11 week-old ApoE-KO mice): 47% | inhibition of progression of atherosclerotic lesions as compared to PBS control (oral 50 μg/dose, 5 administrations monthly for four months, 20 week-old ApoE-KO mice, 16 weeks): > 30% and 35%
